What was measured:
[1] = system: luminal MECs; experiment: Mammosphere assay, primary luminal cells after pre-treatment; assay type: cell-based, human; details: 5-day treatment
Text: FIGS. 7A-7G. Migratory and self-renewal properties in primary MECs: inhibition and induction. (FIG. 7A) Mammosphere Assay: microscopy images of mammospheres and quantification of mammosphere formation by purified basal, luminal and unsorted MEC populations. Primary spheres were allowed to form over a period of 7 days, dissociated and seeded for secondary sphere formation, n(mammosphere)/1000 cells, n=48, (FIG. 7B) Migration Assay: microscopy images of migrated cells in Boyden Chambers and quantification, n=6. (FIG. 7C) Mammosphere Assay: basal cells were seeded into assay after a 5 day pre-treatment with TGF-beta inhibitors A83-01 and […] (SB43, both inhibitors at 10 μM) as well as recombinant SFRP1 (1 μg/ml), n(mammospheres)/1000 cells, n=6. (FIG. 7D) Migration Assay: basal cells were seeded into migration assays treated after 5 day pre-treatment as described in (C), n=24. (FIG. 7E) Mammosphere Assay: luminal cells were seeded into the assay following a 5 day pre-treatment with TGF-beta 1 (5 ng/ml), Wnt5a (250 ng/ml), anti-E-Cadherin antibody (1 μg/ml) plus anti-DKK1 antibody (10 μg/ml), and a cocktail of all factors added together (iEMT-II), n(mammospheres)/1000 cells, n=24. (FIG. 7F) Migration Assay: luminal cells were seeded into Boyden Chambers following a 5 day pre-treatment as described in (E), n=6. […]

[2] = system: MSP-RAS cells; experiment: Orthotopic tumor formation and metastasis after ex vivo treatment of MSP-RAS tumorspheres; assay type: in vivo, mice; details: for reduction in lung metastases / reduction of metastatic foci in the liver: foci normalized by primary tumor weight, ex vivo treatment; for reduction of tumor weight / reduction of metastatic foci in the liver: on average
Procedure: FIGS. 4A-4G. Autocrine Signaling controls tumorigenicity and metastasis of MSP-RAS cells. (FIG. 4A) Migration assay: RAS-transformed MSP (MSP-RAS) were seeded in Boyden Chamber migration assays and recombinant SFRP1 (1 μg/ml) and BMP4 protein (0.5 μg/ml) were added; *control vs. single treatment, p<1×10^−8, **single vs. double treatment with SFRP1 and BMP4 (S+B), p<1×10^−4, n=3. (FIG. 4B) Tumorsphere assay: SFRP1 (1 μg/ml) and BMP4 protein (0.5 μg/ml) were added daily during primary sphere formation (5 days), spheres were dispersed and seeded for secondary sphere formation in the absence of further treatment; #control primary vs. secondary sphere formation, p=0.001; *control vs. single treatment, p<1×10^−4, **single vs. double treatment with SFRP1 and BMP4 (S+B), p<0.01, n(tumorspheres)/1000 cells, n=6. (FIG. 4C) Flow cytometry: CD44 and CD24 cell-surface markers of dissociated primary tumorspheres as described in (B). (FIG. 4D) Orthotopic tumor formation after ex vivo treatment during tumorsphere formation: primary tumorspheres as generated in (B) were pooled, dissociated and 1.0×10^5 cells were implanted in the fat pads of mice; shown are tumor weight and incidence, *indicates absence of tumor, n=5 mice/group. (FIG. 4E) Lung metastasis: fluorescence microscopy images of the major left lung lobe showing GFP-expressing metastatic nodules and quantification of the number of lung surface metastases; *control vs. SFRP1 treatment, p<0.05, **SFRP1 vs. BMP4 or double treatment (S+B), p<0.05, n=5 mice/group. (FIG. 4F) Liver metastasis: fluorescence microscopy images of the liver surface showing GFP-expressing micro-metastatic nodules after implantation of cells as described in (D) and quantification: 5 fields of liver surface were counted per mouse, *control vs. single treatment, p<0.05, **single vs. double treatment (S+B), p<0.05, n=5 mice/group. (FIG. 4G) Tumorigenicity assay: MSP-RAS cells suspended in PBS containing SFRP1 (1 μg/ml), BMP4 (0.5 μg/ml), and a combination of both (S+B) were implanted subcutaneously in mice at indicated cell numbers. In addition, 20 μl of PBS or PBS with proteins at indicated doses was injected peri-tumorally at 1, 2, 3 and 7 days after implanting the MSP-RAS cells.
We also wished to determine whether in vitro exposure to SFRP1 and BMP4 influenced subsequent in vivo behavior of MSP-RAS cells. For this purpose, we prepared single-cell suspensions from primary control MSP-RAS tumorspheres or from the residual tumorspheres that had formed during a 5 day in vitro treatment with SFRP1, BMP4 or a combination of both. Following injection of these populations into the mammary fat pads of mice, we noted that the tumors that originated from mammospheres of MSP-RAS cells that had been exposed ex vivo to either SFRP1, BMP4 or a combination of both were reduced in weight by 3-fold on average (FIG. 4D). However, we only observed a modest reduction in tumor incidence for the BMP4 and combination-treated groups (30%, FIG. 4D).
Animal studies. All research involving animals complied with protocols approved by the MIT Committee on Animal Care. For tumorigenicity studies, indicated numbers of cells in 100 μL of Matrigel (BD Biosciences) diluted 1:4 in PBS were injected subcutaneously in the left and right flanks of age-matched female nude (nu/nu) mice. Mice were sacrificed and necropsied after 10 weeks. For orthotopic injections, 1×10^5 cells suspended in PBS were injected into each of the two inguinal mammary glands of age-matched female NOD-SCID mouse. Mice were sacrificed after 10 weeks or when tumors reached a diameter >1 cm. Lung surface metastases were counted using a fluorescent microscope within 3 hr of specimen isolation.

[3] = 5 day ex vivo treatment, mammary fat pad injection

Molecule: TGF-beta 1: recombinant TGF-beta 1 protein, used at 5 ng/ml
- increase in mammosphere-forming cells / efficiency [1]: 3 fold

B1: SFRP1: Recombinant human SFRP1 protein (R&D Systems), secreted decoy receptor binding canonical and non-canonical Wnt ligands (protein, UniProt Q8N474 32-314, looked up)
Secreted frizzled-related …: SEYDYVSFQSDIGPYQSGRFYTKPPQCVDIPADLRLCHNVGYKKMVLPNLLEHETMAEVKQQASSWVPLLNKNCHAGTQVFLCSLFAPVCLDRPIYPCRWLCEAVRDSCEPVMQFFGFYWPEMLKCDKFPEGDVCIAMTPPNATEASKPQGTTVCPPCDNELKSEAIIEHLCASEFALRMKIKEVKKENGDKKIVPKKKKPLKLGPIKKKDLKKLVLYLKNGADCPCHQLDNLSHHFLIMGRKVKSQYLLTAIHKWDKKNKEFKNFMKKMKNHECPTFQSVFK
- reduction in lung metastases [2]: 2 fold
- reduction of tumor weight [2, 3]: 3 fold
- reduction of metastatic foci in the liver [2]: 2.5 fold

B2: BMP4: Recombinant BMP4 protein obtained from Stemgent (protein, UniProt P12644 293-408, looked up)
Bone morphogenetic protein 4: SPKHHSQRARKKNKNCRRHSLYVDFSDVGWNDWIVAPPGYQAFYCHGDCPFPLADHLNSTNHAIVQTLVNSVNSSIPKACCVPTELSAISMLYLDEYDKVVLKNYQEMVVEGCGCR
- reduction in tumor incidence [2, 3]: 30%
- reduction in lung metastases [2]: 7.5 fold
- reduction of tumor weight [2, 3]: 3 fold
- reduction of metastatic foci in the liver [2]: 5 fold

Reference: US9308238B2, “Compositions and methods for modulating EMT and uses thereof” (Whitehead Institute for Biomedical Research, priority 2010, dated 2016)
